# Source: patent publication US11230581B2, “Peptides and combination of peptides for use in immunotherapy against ovarian cancer and other cancers” (Immatics Biotechnologies GmbH, priority 2015, dated 2022)
# Molecular target: HLA-A*02:01 (Homo sapiens, UniProt P04439, D140Y/D185E/D98H/E176V/E277Q/G131W/G231S/I119V/I121R/I166T/I218V/L300P/L318F/N151K/N90K/P208A/P217A/Q86G/Q94H/R138H/R169H/T345S)
# Test: MHC binding assay (UV-ligand exchange, β2m ELISA, peptide exchange yield)
# Details: binding of HLA-class I restricted peptides to HLA-A*02:01, UV-ligand exchange
# Procedure, shortened: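 Yield of stabilized complexes quantified via the β2m light chain in an ELISA (streptavidin capture, 100-fold diluted monomers, HRP anti-β2m 2 ug/ml at 37 °C, TMB, A450). The complexes come from UV-triggered replacement of a photocleavable ligand by the candidate peptide.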
row,Substance,"Peptide exchange (MHC class I binding score, peptide exchange yield)"
1,370 (SLLQDLVSV; listed as Homo sapiens) [compound 370],“+++” (≥50 = +++)
2,366 (RLLDMGETDLML; listed as Homo sapiens) [compound 366],“+++” (≥50 = +++)
3,113 (GLLPTPLFGV; listed as Homo sapiens) [compound 113],“+++” (≥50 = +++)
4,51 (LLPDLEFYV; listed as Homo sapiens) [compound 51],“++++” (≥75% = ++++)
5,575 (YLISQVEGHQV; listed as Homo sapiens) [compound 575],“+++” (≥50 = +++)
6,5 (HLTEVYPEL; listed as Homo sapiens) [compound 5],“+++” (≥50 = +++)
7,285 (QLLHVGVTV; listed as Homo sapiens) [compound 285],“+++” (≥50 = +++)
8,336 (ILLTAIVQV; listed as Homo sapiens) [compound 336],“+++” (≥50 = +++)
9,64 (YAAPGGLIGV; listed as Homo sapiens) [compound 64],“++” (≥20% = ++)
10,190 (FLSSLTETI; listed as Homo sapiens) [compound 190],“+++” (≥50 = +++)
11,594 (IMLKGDNITL; listed as Homo sapiens) [compound 594],“+++” (≥50 = +++)
12,590 (SLIEKLWQT; listed as Homo sapiens) [compound 590],“++” (≥20% = ++)
13,604 (SILDRDDIFV; listed as Homo sapiens) [compound 604],“+++” (≥50 = +++)
14,123 (NLWDLTDASVV; listed as Homo sapiens) [compound 123],“+++” (≥50 = +++)
15,283 (ALYIGDGYVIHLA; listed as Homo sapiens) [compound 283],“+++” (≥50 = +++)
16,297 (VLADIELAQA; listed as Homo sapiens) [compound 297],“+++” (≥50 = +++)
17,90 (TLLQIIETV; listed as Homo sapiens) [compound 90],“+++” (≥50 = +++)
18,157 (SLNDEVPEV; listed as Homo sapiens) [compound 157],“++” (≥20% = ++)
19,573 (ILVANAIVGV; listed as Homo sapiens) [compound 573],“+++” (≥50 = +++)
20,600 (ALAAPDIVPAL; listed as Homo sapiens) [compound 600],“+++” (≥50 = +++)
21,559 (VTVPPGPSL; listed as Homo sapiens) [compound 559],“++” (≥20% = ++)
22,566 (VIADGGIQNV; listed as Homo sapiens) [compound 566],“++” (≥20% = ++)
23,242 (AIAYILQGV; listed as Homo sapiens) [compound 242],“++” (≥20% = ++)

row,Substance,"Peptide exchange (MHC class I binding score, peptide exchange yield)"
1,501 (LLDPNVKSIFV; listed as Homo sapiens) [compound 501],“+++” (≥50 = +++)
2,6 (VLVSDGVHSV; listed as Homo sapiens) [compound 6],“+++” (≥50 = +++)
3,2 (SLLEADPFL; listed as Homo sapiens) [compound 2],“+++” (≥50 = +++)
4,241 (SLVEVNPAYSV; listed as Homo sapiens) [compound 241],“+++” (≥50 = +++)
5,615 (VLPPDTDPA; listed as Homo sapiens) [compound 615],“++” (≥20% = ++)
6,78 (SLFSSLEPQIQPV; listed as Homo sapiens) [compound 78],“+++” (≥50 = +++)
7,439 (YLLQEIYGI; listed as Homo sapiens) [compound 439],“+++” (≥50 = +++)
8,402 (VLFSGALLGL; listed as Homo sapiens) [compound 402],“++” (≥20% = ++)
9,577 (VMFEDGVLMRL; listed as Homo sapiens) [compound 577],“+++” (≥50 = +++)
10,230 (ILVDWLVEV; listed as Homo sapiens) [compound 230],“+” (≥10% = +)
11,607 (RLYSGISGLEL; listed as Homo sapiens) [compound 607],“+++” (≥50 = +++)
12,276 (ALFTFSPLTV; listed as Homo sapiens) [compound 276],“+++” (≥50 = +++)
13,151 (KILQQLVTL; listed as Homo sapiens) [compound 151],“+++” (≥50 = +++)
14,11 (KIFEMLEGV; listed as Homo sapiens) [compound 11],“+++” (≥50 = +++)
15,602 (YLLEQIKLIEV; listed as Homo sapiens) [compound 602],“++++” (≥75% = ++++)
16,33 (VLLSLLEKV; listed as Homo sapiens) [compound 33],“++” (≥20% = ++)
17,304 (MTLGQIYYL; listed as Homo sapiens) [compound 304],“+++” (≥50 = +++)
18,550 (FLYDEIEAEVNL; listed as Homo sapiens) [compound 550],“+++” (≥50 = +++)
19,372 (TMLLNIPLV; listed as Homo sapiens) [compound 372],“++” (≥20% = ++)
20,328 (ALNDQVFEI; listed as Homo sapiens) [compound 328],“+++” (≥50 = +++)
21,194 (ALPLFVITV; listed as Homo sapiens) [compound 194],“+++” (≥50 = +++)
22,17 (GLLPGDRLVSV; listed as Homo sapiens) [compound 17],“+++” (≥50 = +++)
23,579 (NLMEMVAQL; listed as Homo sapiens) [compound 579],“++” (≥20% = ++)

row,Substance,"Peptide exchange (MHC class I binding score, peptide exchange yield)"
1,195 (GLFADLLPRL; listed as Homo sapiens) [compound 195],“+++” (≥50 = +++)
2,21 (VLDELDMEL; listed as Homo sapiens) [compound 21],“++” (≥20% = ++)
3,39 (SVAPNLPAV; listed as Homo sapiens) [compound 39],“+++” (≥50 = +++)
4,324 (FLYDEIEAEV; listed as Homo sapiens) [compound 324],“+++” (≥50 = +++)
5,542 (RVWDISTVSSV; listed as Homo sapiens) [compound 542],“+++” (≥50 = +++)
6,306 (ALVNVQIPL; listed as Homo sapiens) [compound 306],“+++” (≥50 = +++)
7,394 (LLAVIGGLVYL; listed as Homo sapiens) [compound 394],“+++” (≥50 = +++)
8,587 (VMNDRLYAI; listed as Homo sapiens) [compound 587],“+++” (≥50 = +++)
9,244 (SLFGGTEITI; listed as Homo sapiens) [compound 244],“+++” (≥50 = +++)
10,164 (ALLPQPKNLTV; listed as Homo sapiens) [compound 164],“+++” (≥50 = +++)
11,382 (ALQNYIKEA; listed as Homo sapiens) [compound 382],“++” (≥20% = ++)
12,108 (ALFPGVALLLA; listed as Homo sapiens) [compound 108],“++++” (≥75% = ++++)
13,556 (FLTDLEDLTL; listed as Homo sapiens) [compound 556],“+++” (≥50 = +++)
14,92 (YLIPFTGIVGL; listed as Homo sapiens) [compound 92],“++” (≥20% = ++)
15,95 (SVIPQIQKV; listed as Homo sapiens) [compound 95],“+++” (≥50 = +++)
16,378 (ALGYFVPYV; listed as Homo sapiens) [compound 378],“+++” (≥50 = +++)
17,553 (SLLNQDLHWSL; listed as Homo sapiens) [compound 553],“++++” (≥75% = ++++)
18,527 (FLLEPGNLEV; listed as Homo sapiens) [compound 527],“++++” (≥75% = ++++)
19,617 (ALMYESEKVGV; listed as Homo sapiens) [compound 617],“+++” (≥50 = +++)
20,549 (AMLENASDIKL; listed as Homo sapiens) [compound 549],“+++” (≥50 = +++)
21,191 (LLQEGQALEYV; listed as Homo sapiens) [compound 191],“++” (≥20% = ++)
